Test results: patent publication US20160137713A1
Numbering of substitutions follows the chain as printed. Values belong to the binder of their own block, whether it stands above or below them.

What was measured:
[1] = target: soluble human FcRn (human) (UniProt P55899); experiment: ELISA on coated shFcRn, scFv 100 ng/mL, pH 6.0
[2] = target: soluble human FcRn (human) (UniProt P55899); experiment: ELISA on coated shFcRn, scFv 100 ng/mL, pH 7.4

ELISA (OD450) [1]: 2.26 OD450
ELISA (OD450) [2]: 1.57 OD450
B2: A12-H04 (scFv, V domains shown, not shown: small tags and cut ends)
VH: EVQLVESGGGLVQPGRSLRLSCAASGFTFDEYGMHWVRQAPGKGLEWVSGVSWNSGSIAYADSVRGRFTISRDNAKNSLYLQMNSLRAEDTALYYCAKGRLLDVWGQGTTVTVSS
VL: QSALTQPASVSGSPGQSITISCTGSSSDVGGYNYVSWYQQHPGKAPKLMIYDVTKRPSGVSNRFSGSKSGNTASLTISGLQAEDEADYYGAYSNTNFYVFGTGTKVTVLG
modifications: linker not given

ELISA (OD450) [1]: 2.06 OD450
ELISA (OD450) [2]: 1.8 OD450
B4: A12-E05 (scFv, V domains shown, not shown: small tags and cut ends)
VH: B2 VH with L101I
VL: B2 VL with A91S, S93N, T95S, N96T
modifications: scFv linker not given

Further lines, the binder ahead of its results:

B1: A12-E01 (scFv, V domains shown, not shown: small tags and cut ends)
VH: B2 VH with G99S, L101S, L102M
VL: B2 VL with A91S, T95N
modifications: linker not given
ELISA (OD450) [1]: 1.71 OD450
ELISA (OD450) [2]: 1.05 OD450

B3: A12-E04 (scFv, V domains shown, not shown: small tags and cut ends)
VH: B2 VH with L102F
VL: B2 VL with A91S, T95S
modifications: linker not given
ELISA (OD450) [1]: 1.59 OD450
ELISA (OD450) [2]: 1.29 OD450
